In data set [1] the target is T1, SMARCAD1 (human, UniProt Q9H4L7-2 1-1028, V974A).
T1 sequence: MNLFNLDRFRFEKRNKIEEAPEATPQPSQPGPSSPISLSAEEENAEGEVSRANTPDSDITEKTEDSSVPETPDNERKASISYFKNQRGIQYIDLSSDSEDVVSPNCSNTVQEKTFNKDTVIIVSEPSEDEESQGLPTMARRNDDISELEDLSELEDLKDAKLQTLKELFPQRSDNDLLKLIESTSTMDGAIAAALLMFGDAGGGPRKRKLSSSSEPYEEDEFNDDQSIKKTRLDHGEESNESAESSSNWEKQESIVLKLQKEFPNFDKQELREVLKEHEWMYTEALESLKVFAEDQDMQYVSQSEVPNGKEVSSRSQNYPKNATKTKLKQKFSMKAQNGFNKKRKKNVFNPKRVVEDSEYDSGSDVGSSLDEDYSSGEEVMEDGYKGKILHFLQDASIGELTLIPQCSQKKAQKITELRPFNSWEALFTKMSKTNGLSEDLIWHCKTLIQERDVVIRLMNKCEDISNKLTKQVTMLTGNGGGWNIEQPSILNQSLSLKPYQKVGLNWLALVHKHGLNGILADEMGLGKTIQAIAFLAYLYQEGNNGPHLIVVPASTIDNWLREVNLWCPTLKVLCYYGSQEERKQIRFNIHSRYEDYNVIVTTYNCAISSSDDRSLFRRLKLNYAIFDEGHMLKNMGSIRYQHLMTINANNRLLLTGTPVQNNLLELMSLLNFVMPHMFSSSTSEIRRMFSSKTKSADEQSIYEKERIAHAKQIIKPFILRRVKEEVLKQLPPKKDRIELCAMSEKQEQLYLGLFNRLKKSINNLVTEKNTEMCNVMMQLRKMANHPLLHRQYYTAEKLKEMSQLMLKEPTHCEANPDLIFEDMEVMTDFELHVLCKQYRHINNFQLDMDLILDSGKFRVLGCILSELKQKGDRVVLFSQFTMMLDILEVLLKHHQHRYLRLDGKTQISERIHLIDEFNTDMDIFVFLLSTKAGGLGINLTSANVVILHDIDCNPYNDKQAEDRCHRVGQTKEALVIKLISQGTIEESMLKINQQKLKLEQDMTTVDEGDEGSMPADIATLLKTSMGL
Kind of data set: fluorescence polarization.

Data set [2] addresses T1, SMARCAD1. Kind of data set: fluorescence polarization. The source holds these as a separate data set.

B1: DNA-RNA hybrid (DNA:RNA)
RNA: GCAGCUGGCACGACAGGUAUGAAUC
DNA: GATTCATACCTGTCGTGCCAGCTGC
For the molecule B1, the binding result with SMARCAD1 [1] is listed as “binds”.

B2: R-loopshort (mixed)
DNA 1: GCCAGGGACGAGGTGAACCTGCAGGTGGGCGGCTACTACTTAGATGTCATCCGAGGCTTATTGGTAGAATTCGGCAGCGTCATGCGACGGC
DNA 2: GCCGTCGCATGACGCTGCCGAATTCTACCACGCGATTCATACCTGTCGTGCCAGCTGCTTTGCCCACCTGCAGGTTCACCTCGTCCCTGGC
RNA: GCAGCUGGCACGACAGGUAUGAAUC
Turning to B2, the “apparent K (half saturation)” value with SMARCAD1 [2] was determined as 26.1 ± 1.4 nM.

B3: dsDNAshort (dsDNA)
DNA 1: GCAGCTGGCACGACAGGTATGAATC
DNA 2: GATTCATACCTGTCGTGCCAGCTGC
For the molecule B3, the “apparent K (half saturation)” value in the data set with SMARCAD1 [2] was 39.5 ± 2 nM.

(Values after publication doi:10.1101/2024.09.13.612941.)
